{"source": "patent US20020151590", "about": "“Compositions and methods for regulating circadian rhythyms” (published 2002)", "binders": {"B1": {"name": "E-box consensus oligonucleotide (dsDNA)", "DNA 1": "GGGACACGTGACCC", "DNA 2": "GGGTCACGTGTCCC"}}, "key": {"[1]": {"biological_target": "MOP4 (NPAS2):BMAL1 heterodimer (Homo sapiens, UniProt Q99743;O00327 Q99743:1-824,O00327:1-626)", "sequence (Q99743 whole entry, chain 1 of 2)": "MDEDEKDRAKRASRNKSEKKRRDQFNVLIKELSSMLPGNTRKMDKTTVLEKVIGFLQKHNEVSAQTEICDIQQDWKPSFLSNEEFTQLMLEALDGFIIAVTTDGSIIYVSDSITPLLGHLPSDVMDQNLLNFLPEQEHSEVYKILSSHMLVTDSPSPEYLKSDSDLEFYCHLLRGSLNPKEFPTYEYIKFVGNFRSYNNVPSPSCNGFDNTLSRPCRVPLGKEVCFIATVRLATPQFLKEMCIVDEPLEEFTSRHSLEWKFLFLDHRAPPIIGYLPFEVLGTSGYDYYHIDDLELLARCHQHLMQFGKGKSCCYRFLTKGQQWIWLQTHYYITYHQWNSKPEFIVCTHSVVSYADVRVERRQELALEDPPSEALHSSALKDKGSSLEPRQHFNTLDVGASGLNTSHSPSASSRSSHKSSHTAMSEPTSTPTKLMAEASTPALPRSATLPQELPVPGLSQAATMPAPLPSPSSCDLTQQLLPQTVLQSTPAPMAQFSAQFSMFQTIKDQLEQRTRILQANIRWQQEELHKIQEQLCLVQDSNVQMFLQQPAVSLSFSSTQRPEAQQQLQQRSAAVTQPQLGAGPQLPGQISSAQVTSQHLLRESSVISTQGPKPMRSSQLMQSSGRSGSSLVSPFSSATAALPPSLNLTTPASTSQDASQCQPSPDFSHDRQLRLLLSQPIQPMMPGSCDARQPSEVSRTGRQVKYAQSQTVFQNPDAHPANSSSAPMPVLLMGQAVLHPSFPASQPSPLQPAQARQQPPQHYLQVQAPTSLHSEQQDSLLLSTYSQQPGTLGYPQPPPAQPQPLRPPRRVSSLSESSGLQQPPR", "sequence (O00327 whole entry, chain 2 of 2)": "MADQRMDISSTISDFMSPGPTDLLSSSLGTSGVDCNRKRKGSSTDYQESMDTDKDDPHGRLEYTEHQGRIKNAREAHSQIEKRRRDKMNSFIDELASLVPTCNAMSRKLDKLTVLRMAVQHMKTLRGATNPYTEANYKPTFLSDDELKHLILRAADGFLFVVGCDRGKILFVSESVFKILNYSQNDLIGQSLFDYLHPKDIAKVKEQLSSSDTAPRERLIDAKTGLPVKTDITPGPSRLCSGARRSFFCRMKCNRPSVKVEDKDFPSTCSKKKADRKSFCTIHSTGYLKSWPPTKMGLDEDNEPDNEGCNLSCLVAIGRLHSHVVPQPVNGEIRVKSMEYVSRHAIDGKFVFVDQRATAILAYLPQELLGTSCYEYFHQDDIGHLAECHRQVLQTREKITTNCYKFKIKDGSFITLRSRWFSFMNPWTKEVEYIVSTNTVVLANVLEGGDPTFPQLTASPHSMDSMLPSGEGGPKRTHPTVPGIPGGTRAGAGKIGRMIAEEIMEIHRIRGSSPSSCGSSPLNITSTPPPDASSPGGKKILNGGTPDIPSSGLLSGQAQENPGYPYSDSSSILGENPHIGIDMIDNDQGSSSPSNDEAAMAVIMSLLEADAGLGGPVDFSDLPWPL", "assay": "EMSA; 150 mM KCl, 20 mM Tris-HCl pH 7.6, 5 mM MgCl2, 200 ng poly(dI-dC), 4 C; RXRa/RARa with 9cisRA/tRA tested as inhibitors; gel result not shown in text", "conditions": "tags: reticulocyte lysate (TNT), CMX plasmids; label: 32P", "text": "(§1) A double-stranded [γ³²P]dATP-labeled consensus oligonucleotide, […] […] The samples were loaded directly onto 4% polyacrylamide-TBE gels to separate MOP4/CLOCK:BMAL1 bound DNA from free DNA. The gels were dried and analyzed on a PhosphorImager."}, "CLOCK:BMAL1 heterodimer": {"biological_target": "CLOCK:BMAL1 heterodimer (Homo sapiens, UniProt O15516;O00327 O15516:1-846,O00327:1-626)", "sequence (O15516 whole entry, chain 1 of 2)": "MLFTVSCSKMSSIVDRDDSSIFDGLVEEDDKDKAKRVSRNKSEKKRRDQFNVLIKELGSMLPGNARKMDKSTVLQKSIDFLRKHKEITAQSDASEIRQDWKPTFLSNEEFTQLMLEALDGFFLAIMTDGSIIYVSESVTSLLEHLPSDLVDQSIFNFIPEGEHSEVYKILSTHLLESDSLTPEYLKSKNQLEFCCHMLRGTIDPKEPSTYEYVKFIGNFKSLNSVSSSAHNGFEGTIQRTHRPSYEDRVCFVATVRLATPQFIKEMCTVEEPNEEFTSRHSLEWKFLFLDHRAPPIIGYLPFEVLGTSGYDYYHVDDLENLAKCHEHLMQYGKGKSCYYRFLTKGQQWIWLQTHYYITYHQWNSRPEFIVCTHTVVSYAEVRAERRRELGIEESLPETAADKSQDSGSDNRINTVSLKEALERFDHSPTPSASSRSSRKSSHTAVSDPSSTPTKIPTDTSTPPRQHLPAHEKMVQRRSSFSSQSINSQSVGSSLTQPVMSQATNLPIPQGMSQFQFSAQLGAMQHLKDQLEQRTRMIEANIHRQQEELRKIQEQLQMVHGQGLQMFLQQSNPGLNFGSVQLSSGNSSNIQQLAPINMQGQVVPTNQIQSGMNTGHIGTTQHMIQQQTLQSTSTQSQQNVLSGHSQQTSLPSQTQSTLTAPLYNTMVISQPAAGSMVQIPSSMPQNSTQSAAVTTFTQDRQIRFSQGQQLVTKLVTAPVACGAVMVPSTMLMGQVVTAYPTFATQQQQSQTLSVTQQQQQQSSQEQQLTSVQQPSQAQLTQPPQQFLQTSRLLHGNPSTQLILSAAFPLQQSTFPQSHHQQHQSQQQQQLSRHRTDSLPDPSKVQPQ", "sequence (O00327 whole entry, chain 2 of 2)": "as the sequence (O00327 whole entry, chain 2 of 2) above", "assay": "EMSA; 150 mM KCl, 20 mM Tris-HCl pH 7.6, 5 mM MgCl2, 200 ng poly(dI-dC), 4 C; RXRa/RARa with 9cisRA/tRA tested as inhibitors; gel result not shown in text", "conditions": "tags: reticulocyte lysate (TNT), CMX plasmids; label: 32P", "text": "as §1"}}}
{"binder": "B1", "values": [{"measurement": "binding result", "setting": "[1]", "value": "binds"}, {"measurement": "binding result", "setting": "CLOCK:BMAL1 heterodimer", "value": "binds"}]}
